Experimental findings from publication PMC8360832, “Butyryl/Caproyl-CoA:Acetate CoA-transferase: cloning, expression and characterization of the key enzyme involved in medium-chain fatty acid biosynthesis” (Bioscience Reports, 2021) are described below.

For orientation: Km means the concentration of substrate that gives half-maximal velocity. A word on the kcat: it is the maximal rate divided by the concentration of active sites. In general, kcat/Km refers to the turnover number divided by the Michaelis constant.

The subject of series [1] is T1, CCCC(=O)SCCNC(=O)CCNC(=O)[C@H](O)C(C)(C)COP(=O)(O)OP(=O)(O)OC[C@H]1O[C@@H](n2cnc3c(N)ncnc32)[C@H](O)[C@@H]1OP(=O)(O)O.
T1 construct: full-length, N-terminal His tag, pET28a, E. coli BL21 (DE3), Ni-NTA; gene 1344 bp, 49 kDa; predicted active site GGQLDFVLGAYL 342-353; homotetramer in model only
In words: purified protein. Conditions: 200 mM sodium acetate, 100 mM potassium phosphate pH 7, 25 °C. In kind it is biochemical, Caproicibacterium lactatifermentans.

Series [2] relates to T2, CCCCCC(=O)SCCNC(=O)CCNC(=O)[C@H](O)C(C)(C)COP(=O)(O)OP(=O)(O)OC[C@H]1O[C@@H](n2cnc3c(N)ncnc32)[C@H](O)[C@@H]1OP(=O)(O)O.
T2 construct: full-length, N-terminal His tag, pET28a, E. coli BL21 (DE3), Ni-NTA; gene 1344 bp, 49 kDa; predicted active site GGQLDFVLGAYL 342-353; homotetramer in model only
In words: purified protein. Type of series: biochemical, Caproicibacterium lactatifermentans. To be noted: 200 mM sodium acetate, 100 mM potassium phosphate pH 7, 25 °C.

Chain of CPB6-CoAT (CCoAT) (Caproicibacterium lactatifermentans; D346H) (chain, as listed by the source D346H): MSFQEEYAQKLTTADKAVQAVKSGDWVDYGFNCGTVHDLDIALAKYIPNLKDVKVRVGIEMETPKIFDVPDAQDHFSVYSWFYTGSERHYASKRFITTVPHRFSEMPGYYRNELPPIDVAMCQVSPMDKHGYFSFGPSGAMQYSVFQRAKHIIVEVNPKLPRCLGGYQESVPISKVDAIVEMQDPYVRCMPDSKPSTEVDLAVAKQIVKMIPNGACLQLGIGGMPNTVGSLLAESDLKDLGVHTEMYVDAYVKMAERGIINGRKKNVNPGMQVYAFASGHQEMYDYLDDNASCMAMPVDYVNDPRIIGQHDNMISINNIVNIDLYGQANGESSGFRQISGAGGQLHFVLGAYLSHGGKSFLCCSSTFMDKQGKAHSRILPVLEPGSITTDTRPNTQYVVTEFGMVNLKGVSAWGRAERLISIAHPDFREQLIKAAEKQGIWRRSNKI
Chain of CPB6-CoAT (CCoAT) (Caproicibacterium lactatifermentans; A351P) (chain, as listed by the source A351P): as the sequence (chain, as listed by the source D346H) above, with H346D, A351P counted along it
Chain of CPB6-CoAT (CCoAT) (Caproicibacterium lactatifermentans) (chain, as listed by the source): as the sequence (chain, as listed by the source D346H) above, with H346D counted along it

For the substance “CPB6-CoAT (CCoAT) (Caproicibacterium lactatifermentans; D346H)”, in series [1], the Km is recorded as 747 ± 2.8 µM, the kcat was 0.0217 ± 0.00333 s⁻¹ and the kcat/Km amounted to 28.8 ± 1.67 M⁻¹ s⁻¹. Further, in series [2], the Km is recorded as 748 ± 7.9 µM, the kcat amounted to 0.0707 ± 0.00333 s⁻¹ and the kcat/Km was found to be 94.3 ± 1.67 M⁻¹ s⁻¹.

Take “CPB6-CoAT (CCoAT) (Caproicibacterium lactatifermentans)”: in series [1], the Km stood at 537 ± 10 µM, the turnover number (kcat) amounted to 0.0968 ± 0.025 s⁻¹ and the kcat/Km turned out to be 180 ± 3.33 M⁻¹ s⁻¹. Further, in series [2], the Km is recorded as 359 ± 5.3 µM, the kcat was found to be 0.245 ± 0.015 s⁻¹ and the kcat/Km stood at 685 ± 3.33 M⁻¹ s⁻¹.

On to “CPB6-CoAT (CCoAT) (Caproicibacterium lactatifermentans; A351P)”, for which, in series [1], the Km came to 623 ± 4.4 µM, the kcat amounted to 0.0498 ± 0.015 s⁻¹ and the kcat/Km came to 80 ± 3.33 M⁻¹ s⁻¹. In series [2], the Km was determined as 532 ± 2.5 µM, the kcat was found to be 0.113 ± 0.02 s⁻¹ and the kcat/Km came out at 213 ± 8.33 M⁻¹ s⁻¹.
